Legend:
[1] = system: H3 peptide (aa10-35) K18ac
[2] = system: nucleosome arrays containing the rH3 K18 acetyl-lysine analogue
[3] = system: nucleosome arrays containing unmodified rH3
[4] = system: rH3 K18 acetyl-lysine analogue
[5] = system: rH3 K27 dimethyl-lysine analogue
[6] = system: rH3 K27 monomethyl-lysine analogue
[7] = system: rH3 K27 trimethyl-lysine analogue
[8] = system: rH3 K36 dimethyl-lysine analogue
[9] = system: rH3 K36 monomethyl-lysine analogue
[10] = system: rH3 K36 trimethyl-lysine analogue
[11] = system: rH3 K4 dimethyl-lysine analogue
[12] = system: rH3 K4 monomethyl-lysine analogue
[13] = system: rH3 K4 trimethyl-lysine analogue
[14] = system: rH3 K9 dimethyl-lysine analogue
[15] = system: rH3 K9 monomethyl-lysine analogue
[16] = system: rH3 K9 trimethyl-lysine analogue
[17] = system: recombinant histone H3, wild type
[18] = system: reconstituted native nucleosome arrays (modified native histones purified from HeLa cells)

recombinant MMP-9 (aa115-730), sequence (chain, as listed by the source): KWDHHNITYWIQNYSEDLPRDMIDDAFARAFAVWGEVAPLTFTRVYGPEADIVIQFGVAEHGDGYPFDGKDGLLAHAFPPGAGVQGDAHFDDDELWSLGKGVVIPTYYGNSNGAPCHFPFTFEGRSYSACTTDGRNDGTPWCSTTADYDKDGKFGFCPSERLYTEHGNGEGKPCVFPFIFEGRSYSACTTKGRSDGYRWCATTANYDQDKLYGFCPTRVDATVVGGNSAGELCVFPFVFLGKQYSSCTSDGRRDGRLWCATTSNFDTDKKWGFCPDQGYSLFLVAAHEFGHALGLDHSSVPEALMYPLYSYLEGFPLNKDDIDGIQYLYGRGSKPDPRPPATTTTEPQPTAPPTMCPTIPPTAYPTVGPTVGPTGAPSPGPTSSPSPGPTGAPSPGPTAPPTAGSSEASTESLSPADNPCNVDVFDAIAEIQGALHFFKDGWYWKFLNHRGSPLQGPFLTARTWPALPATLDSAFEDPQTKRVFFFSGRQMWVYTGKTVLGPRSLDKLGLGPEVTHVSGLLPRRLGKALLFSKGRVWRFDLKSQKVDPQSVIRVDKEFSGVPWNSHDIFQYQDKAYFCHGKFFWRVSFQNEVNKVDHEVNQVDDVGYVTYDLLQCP

| Substance | cleaved H3 (peptide hydrolysis measured with fluorescamine; kinetic analysis), against unmodified H3 or H3K27me1 peptides [1] | H3NT cleavage (in vitro H3NT cleavage assay) [2] | rMMP-9 protease activity (in vitro H3NT cleavage assay) [3] | H3NT proteolysis (in vitro H3NT cleavage assay) [4] | MMP-9 activity (in vitro H3NT cleavage assay) [5] | MMP-9 activity (in vitro H3NT cleavage assay) [6] | MMP-9 activity (in vitro H3NT cleavage assay) [7] | MMP-9 activity (in vitro H3NT cleavage assay) [8] | MMP-9 activity (in vitro H3NT cleavage assay) [9] | MMP-9 activity (in vitro H3NT cleavage assay) [10] | MMP-9 activity (in vitro H3NT cleavage assay) [11] | MMP-9 activity (in vitro H3NT cleavage assay) [12] | MMP-9 activity (in vitro H3NT cleavage assay) [13] | MMP-9 activity (in vitro H3NT cleavage assay) [14] | MMP-9 activity (in vitro H3NT cleavage assay) [15] | MMP-9 activity (in vitro H3NT cleavage assay) [16] | H3NT protease activity (in vitro H3NT cleavage assay, Western blot with the H3CT antibody) [17] | rMMP-9 protease activity (in vitro H3NT cleavage assay) [18] |
| --- | --- | --- | --- | --- | --- | --- | --- | --- | --- | --- | --- | --- | --- | --- | --- | --- | --- | --- |
| recombinant MMP-9 (aa115-730) | 3-fold increase of cleaved H3 compared to unmodified H3 or H3K27me1 peptides | the specific acetylation of H3K18 was both necessary and sufficient for H3NT cleavage by rMMP-9 in a nucleosome array context | completely resistant to rMMP-9 protease activity | the specific acetylation of K18 robustly increased H3NT proteolysis by rMMP-9 | nearly identical to rH3 control in all cases | nearly identical to rH3 control in all cases | nearly identical to rH3 control in all cases | nearly identical to rH3 control in all cases | nearly identical to rH3 control in all cases | nearly identical to rH3 control in all cases | nearly identical to rH3 control in all cases | nearly identical to rH3 control in all cases | nearly identical to rH3 control in all cases | nearly identical to rH3 control in all cases | nearly identical to rH3 control in all cases | nearly identical to rH3 control in all cases | only rMMP-9 possessed H3NT protease activity | rMMP-9 displayed robust activity for modified native nucleosome arrays |
| recombinant USP14 | – | – | – | – | – | – | – | – | – | – | – | – | – | – | – | – | only rMMP-9 possessed H3NT protease activity | – |
